Test results reported in paper PMC10978848, “Insights into the dual nature of αB-crystallin chaperone activity from the p.P39L mutant at the N-terminal region” (Scientific Reports, 2024).
Where a chain is given by its changes, count along the chain named. Names may count otherwise.

B1: human αB-crystallin, wild-type (natural protein, UniProt P02511 1-175, looked up)
chain: MDIAIHHPWIRRPFFPFHSPSRLFDQFFGEHLLESDLFPTSTSLSPFYLRPPSFLRAPSWFDTGLSEMRLEKDRFSVNLDVKHFSPEELKVKVLGDVIEVHGKHEERQDEHGFISREFHRKYRIPADVDPLTITSSLSSDGVLTVNGPRKQVSGPERTIPITREEKPAVTAAPKK
notes: human αB-crystallin (CRYAB, HspB5); It names no tag; also called CRYAB; HspB5; source: E. coli, IPTG-induced, purified (anion exchange, DEAE cellulose); copies: 24
B2: human αB-crystallin p.P39L mutant (natural protein, UniProt P02511 1-175, looked up)
chain: B1 chain with P39L
notes: human αB-crystallin (CRYAB, HspB5) with the variant p.P39L, which was found in a patient; It names no tag; also called p.P39L αB-Cry; mutant αB-Cry; source: E. coli, IPTG-induced, purified (anion exchange, DEAE cellulose); copies: 48

Target: the molecule itself
Assay: AUC; sedimentation velocity, 40,000 rpm, 20 °C, absorbance at 280 nm, buffer A (50 mM sodium phosphate, pH 7.4); masses from c(M) after Schuck; size of the oligomer

| Protein | stoichiometry N [subunits] |
| --- | --- |
| B1 | 24 |
| B2 | 48 |
